Experimental data: patent publication US20200407442A1 (WUXI BIOLOGICS IRELAND, published 2020)

T1: Variant 10: xPro1.FL-x10 (human; mouse)
T1 construct: Chimeric full-length LAG-3 on transfected 293F cells
T1 chain: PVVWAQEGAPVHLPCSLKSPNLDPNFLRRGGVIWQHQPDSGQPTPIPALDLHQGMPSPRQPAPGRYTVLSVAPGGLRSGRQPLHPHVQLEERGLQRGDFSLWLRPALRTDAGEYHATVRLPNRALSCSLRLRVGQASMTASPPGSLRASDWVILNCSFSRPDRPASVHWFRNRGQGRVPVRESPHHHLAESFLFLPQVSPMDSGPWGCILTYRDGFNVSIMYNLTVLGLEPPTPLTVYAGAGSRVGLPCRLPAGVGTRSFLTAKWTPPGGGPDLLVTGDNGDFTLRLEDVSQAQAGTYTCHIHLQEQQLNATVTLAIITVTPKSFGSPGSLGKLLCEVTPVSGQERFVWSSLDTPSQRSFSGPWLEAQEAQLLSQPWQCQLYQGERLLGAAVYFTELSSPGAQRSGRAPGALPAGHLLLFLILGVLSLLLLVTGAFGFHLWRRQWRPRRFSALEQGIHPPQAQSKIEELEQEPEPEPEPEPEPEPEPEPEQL

T2: Variant 9: xPro1.FL-x9 (human; mouse)
T2 construct: Chimeric full-length LAG-3 on transfected 293F cells
T2 chain: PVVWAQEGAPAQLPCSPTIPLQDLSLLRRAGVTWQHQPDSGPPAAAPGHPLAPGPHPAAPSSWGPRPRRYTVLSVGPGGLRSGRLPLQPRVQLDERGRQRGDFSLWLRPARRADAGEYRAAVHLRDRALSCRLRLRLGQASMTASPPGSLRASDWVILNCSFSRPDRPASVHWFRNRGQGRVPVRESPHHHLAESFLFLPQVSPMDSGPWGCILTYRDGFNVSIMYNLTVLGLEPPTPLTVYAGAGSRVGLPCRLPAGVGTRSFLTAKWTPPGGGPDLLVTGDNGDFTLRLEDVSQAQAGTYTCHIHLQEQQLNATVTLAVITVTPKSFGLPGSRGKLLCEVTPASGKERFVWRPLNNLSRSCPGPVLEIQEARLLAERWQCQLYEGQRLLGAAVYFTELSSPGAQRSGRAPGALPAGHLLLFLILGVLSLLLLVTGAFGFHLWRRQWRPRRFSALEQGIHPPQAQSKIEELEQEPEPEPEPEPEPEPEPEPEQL

T3: mFc-tagged LAG-3 protein (human, UniProt P18627 30-450)
T3 construct: also called human LAG-3 ECD with mouse Fc tag
T3 sequence: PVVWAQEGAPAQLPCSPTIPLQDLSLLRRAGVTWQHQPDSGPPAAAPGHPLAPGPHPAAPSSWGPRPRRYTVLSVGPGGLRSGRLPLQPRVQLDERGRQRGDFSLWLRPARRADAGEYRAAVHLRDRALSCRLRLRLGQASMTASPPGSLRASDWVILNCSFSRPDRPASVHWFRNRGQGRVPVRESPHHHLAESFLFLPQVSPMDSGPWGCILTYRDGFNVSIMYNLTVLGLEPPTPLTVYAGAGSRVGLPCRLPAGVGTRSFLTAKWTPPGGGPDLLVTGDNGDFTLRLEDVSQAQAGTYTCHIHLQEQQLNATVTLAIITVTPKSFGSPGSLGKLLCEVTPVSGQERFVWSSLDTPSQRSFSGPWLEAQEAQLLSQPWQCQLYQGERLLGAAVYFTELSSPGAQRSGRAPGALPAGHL

T4: full-length human LAG-3 on cells (human, UniProt P18627 23-525)
T4 sequence: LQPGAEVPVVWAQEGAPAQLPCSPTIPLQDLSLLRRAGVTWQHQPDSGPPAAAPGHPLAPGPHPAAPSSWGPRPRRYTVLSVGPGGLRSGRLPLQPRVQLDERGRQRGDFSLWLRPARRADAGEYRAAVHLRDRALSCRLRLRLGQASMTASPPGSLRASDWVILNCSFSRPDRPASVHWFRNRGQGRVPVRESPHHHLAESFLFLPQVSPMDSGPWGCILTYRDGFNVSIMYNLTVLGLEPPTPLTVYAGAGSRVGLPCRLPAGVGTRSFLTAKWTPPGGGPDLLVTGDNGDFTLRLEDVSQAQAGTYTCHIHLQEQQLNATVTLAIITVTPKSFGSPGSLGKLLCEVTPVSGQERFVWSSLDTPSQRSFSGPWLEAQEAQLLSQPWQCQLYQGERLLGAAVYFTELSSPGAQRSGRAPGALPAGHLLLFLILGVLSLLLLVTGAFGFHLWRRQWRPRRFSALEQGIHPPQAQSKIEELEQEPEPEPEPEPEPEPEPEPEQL


How the values were obtained:
[1] = target: T1, Variant 10: xPro1.FL-x10; assay: FACS, 1 ug/mL antibody, transfected 293F cells
Procedure: (§1) The 10 variants were cloned into pcDNA3 vector and used for 293F cell transfection. Briefly, 293F cells were diluted to a density of 1×10⁶ cells/mL with FreeStyle 293F medium and aliquots of 3 mL/well were added to 24-well plate. Transfections were performed using 293fectin reagent (Life Technologies). For each transfection, 3 μg of DNA were diluted in 150 μOpti-MEM I-reduced serum medium (Life Technologies), and then combined with 6μL 293fectin reagent pre-diluted in 150 μL Opti-MEM I reduced serum medium. The DNA/[…] mixture was allowed to stand at 25° C. for 20 min before being added to the culture. The transfected cells were analyzed by flow cytometry at 48 h post-transfection.
(§2) Binding of antibodies to chimeric LAG-3 variants or full length human/mouse LAG-3 was analyzed by flow cytometry. Briefly, 1 μg/mL antibodies were incubated with chimeric LAG-3-expressing transfected 293F cells for 1 hour at 4° C., and then incubated with 3 μg/mL goat anti-human IgG Fc R-PE (Jackson) for 40 min at 4° C. Cells were analyzed with flow cytometer.

[2] = target: T2, Variant 9: xPro1.FL-x9; assay: FACS, 1 ug/mL antibody, transfected 293F cells
Procedure: as §1, §2

[3] = target: T3, mFc-tagged LAG-3 protein; assay: ELISA competition: blocks mFc-tagged LAG-3 binding to coated Galectin-3
Procedure: 96-well plates were coated with human LSECtin or Galectin-3 at 0.5 μg/mL overnight at 4° C., respectively. Antibodies were serially diluted in 1% BSA-PBS and mixed with mFc-tagged LAG-3 protein. After blocking and washing, the mixture was transferred to the plates and incubated at room temperature for 1 h. The plates were then washed and subsequently incubated with corresponding secondary antibody for 60 min. After washing, TMB substrate was added and the color reaction was stopped by 2M HCl. The absorbance at 450 nm was read using a microplate reader.

[4] = target: T4, full-length human LAG-3 on cells; assay: cell-based or functional assay

MFI [1]	PE+ % [1]	MFI [2]	PE+ % [2]	EC50 [3]	EC50, IL-2 luciferase reporter gene assay (Jurkat cells expressing human LAG-3 with Raji cells and SEE) [4]	Binder
42.3	1.98%	7030	97.3%	0.74 nM	1.07 nM	1.53.3-uAb-IgG4k (antibody, V domains shown, Fully human antibody from OMT rats; IgG4 kappa by its name) VH: QVQLQQWGAGLLKPSETLSLTCGVYGGSFSGYYWSWIRQPPGMGLEWIGEINHRGNTNYNPSLKSRVTISEDTSKNQFSLRLSSVTAADTAVYFCTRGEDYSDYDYYGDFWGQGTLVTVSS VL: EIVLTQSPATLSLSQGERATLSCRASQSISSYLAWYQQKPGQAPRLLIYAASNRATGIPARFSGSGSGTDFTLTISSLEPEDFAIYYCQQRSNWPLTFGGGTKVEIK
68.5	0.988%	8320	87.3%	0.56 nM	0.21 nM	3.40.19-uAb-IgG4L (antibody, V domains shown, Fully human antibody from OMT rats; IgG4 lambda by its name; also called 3.40.19-uAb-hIgG4L) VH: QLQLQESGPGLVKPSETLSLTCTVSGDSISSTSYYWGWIRQPPGKGLEWIGSFYYSGSTYYNPSLKSRVTISVDTSKNQFSLKLNSVTAADTAVYYCARMQLWSYDVDVWGQGTTVTVSS VL: QSALTQPASVSGSPGQSITISCTGTSSDVGGYDYVAWYQQHPGKVPKLMIYDVSERPSGVSNRFSGSKSGNTASLTISGLQAEDEADYYCSSYTSTTTLVVFGGGTKLSVL
